According to publication PMC12700808:

Tests used:
[1] = target: Nup98-type FG domain comprising 52 perfect 12-mer GLFG repeat units (prf.GLFG52x12); assay: FG phase partitioning assay
[2] = target: FG repeat domain of 669 residues with non-charged spacers and 36 FSFG motifs; assay: FG phase partitioning assay
[3] = target: Nup98-type FG domain comprising 52 perfect 12-mer GLFG repeat units (prf.GLFG52x12); assay: partitioning into an FG phase (confocal laser scanning microscopy); prf.GLFG52x12 domain phase-separated into FG particles; fluorescent species added, scanned 1 h later; 50 mM Tris-HCl pH 7.5, 150 or 250 mM NaCl, 0.5 mM IP6; signal in:out, or rim and centre normalised to wild type
[4] = target: Nup98-type FG domain comprising 52 perfect 12-mer GLFG repeat units (prf.GLFG52x12); assay: FG phase partitioning assay; remark: listed apart in the source
[5] = target: Nup98-type FG domain comprising 52 perfect 12-mer GLFG repeat units (prf.GLFG52x12); assay: FG phase partitioning assay; remark: listed apart in the source
[6] = target: Nup98-type FG domain comprising 52 perfect 12-mer GLFG repeat units (prf.GLFG52x12); assay: FG phase partitioning assay; remark: listed apart in the source
[7] = target: Nup98-type FG domain comprising 52 perfect 12-mer GLFG repeat units (prf.GLFG52x12); assay: FG phase partitioning assay; remark: listed apart in the source
[8] = fluorescence intensity at rim of FG particles
[9] = fluorescence intensity in center of FG particles
[10] = signal in center of FG particles

Substance | response [1, 8] | response [1, 9] | percent of parent ([1]; signal at rim of FG particles) | percent of parent [1, 10] | other results
20-nm T1 pentamer-only capsid spheres (CA P1A+G60A+G61P), EGFP-labelled A92E | 11000 | 5300 | 58% | 28% | –
20-nm T1 pentamer-only capsid spheres (CA P1A+G60A+G61P), EGFP-labelled G89V | – | – | – | – | response [2, 8]: 31000; response [2, 9]: 34000; percent of parent ([2]; signal at rim of FG particles): 160%; percent of parent [2, 10]: 170%
20-nm T1 pentamer-only capsid spheres (CA P1A+G60A+G61P), EGFP-labelled G94D | 15000 | 9600 | 79% | – | –
20-nm T1 pentamer-only capsid spheres (CA P1A+G60A+G61P), EGFP-labelled H87Q | 15000 | 13000 | 79% | 68% | –
20-nm T1 pentamer-only capsid spheres (CA P1A+G60A+G61P), EGFP-labelled H87Q; A92E; G94D | 2300 | 190 | 12% | 1% | –
20-nm T1 pentamer-only capsid spheres (CA P1A+G60A+G61P), EGFP-labelled N57A | 8500 | 400 | 45% | 2.1% | –
20-nm T1 pentamer-only capsid spheres (CA P1A+G60A+G61P), EGFP-labelled P90A | – | – | – | – | response [2, 8]: 45000; response [2, 9]: 51000; percent of parent ([2]; signal at rim of FG particles): 240%; percent of parent [2, 10]: 260%
20-nm T1 pentamer-only capsid spheres (CA P1A+G60A+G61P), EGFP-labelled Q9E | 15000 | 14000 | 79% | 74% | –
20-nm T1 pentamer-only capsid spheres (CA P1A+G60A+G61P), EGFP-labelled Q9E; A92E | 5800 | 290 | 31% | 1.5% | –
20-nm T1 pentamer-only capsid spheres (CA P1A+G60A+G61P), EGFP-labelled V86E; A88E; I91E; A92E | 74 | – | 0.4% | 0.4% | –
CLPs of CA A88E, filled with sinGFP4a (complex) | – | – | – | – | fold reduction of partitioning against wild type [3]: > 10 fold
CLPs of CA A92E, filled with sinGFP4a (complex) | – | – | – | – | fold reduction of partitioning against wild type [3]: > 10 fold; partitioning, percent of the wild-type level (% of the wild-type level) [3]: 5
CLPs of CA G94D, filled with sinGFP4a (complex) | – | – | – | – | partitioning, percent of the wild-type level (% of the wild-type level) [3]: 5
CLPs of CA H87E, filled with sinGFP4a (complex) | – | – | – | – | fold reduction of partitioning against wild type [3]: 15 fold
CLPs of CA H87Q, filled with sinGFP4a (complex) | – | – | – | – | reduction in partitioning against wild type [3]: 50%
CLPs of CA I91E, filled with sinGFP4a (complex) | – | – | – | – | fold reduction of partitioning against wild type [3]: > 10 fold
CLPs of CA M96E, filled with sinGFP4a (complex) | – | – | – | – | fold reduction of partitioning against wild type [3]: > 10 fold
CLPs of CA R132K, filled with sinGFP4a (complex) | – | – | – | – | reduction in partitioning against wild type [3]: 50%
CLPs of CA V86E, filled with sinGFP4a (complex) | – | – | – | – | fold reduction of partitioning against wild type [3]: > 10 fold
EGFP | – | – | – | – | partition coefficient (in:out) [3]: < 0.1
conical CLPs (capsid-like particles) of wild-type CA (CA-P1A), EGFP-labelled (complex) | – | – | – | – | partition coefficient (in:out) [3]: 1000
conical CLPs (capsid-like particles) of wild-type CA (CA-P1A), filled with sinGFP4a A77V | – | – | – | – | percent of parent [4, 10]: 94%; response [5, 8]: 27000; response [5, 9]: 29000
conical CLPs (capsid-like particles) of wild-type CA (CA-P1A), filled with sinGFP4a A88G | 26000 | 30000 | 90% | 90% | –

Substance | response [1, 8] | response [1, 9] | percent of parent ([1]; signal at rim of FG particles) | percent of parent [1, 10] | other results
conical CLPs (capsid-like particles) of wild-type CA (CA-P1A), filled with sinGFP4a A92G | 26000 | 32000 | 90% | 90% | –
conical CLPs (capsid-like particles) of wild-type CA (CA-P1A), filled with sinGFP4a E45A | – | – | – | – | percent of parent ([4]; signal at rim of FG particles): 110%; percent of parent [4, 10]: 110%; response [5, 8]: 29000; response [5, 9]: 34000
conical CLPs (capsid-like particles) of wild-type CA (CA-P1A), filled with sinGFP4a G89V | – | – | – | – | percent of parent [4, 10]: 110%; response [5, 8]: 29000; response [5, 9]: 30000
conical CLPs (capsid-like particles) of wild-type CA (CA-P1A), filled with sinGFP4a G116A | – | – | – | – | response [5, 8]: 27000; response [5, 9]: 32000
conical CLPs (capsid-like particles) of wild-type CA (CA-P1A), filled with sinGFP4a H87G | 30000 | 30000 | – | 90% | –
conical CLPs (capsid-like particles) of wild-type CA (CA-P1A), filled with sinGFP4a H87Q; A92E; G94D | 8200 | 670 | – | – | percent of parent [6, 10]: 2.6%
conical CLPs (capsid-like particles) of wild-type CA (CA-P1A), filled with sinGFP4a I91G | 30000 | 33000 | – | – | –
conical CLPs (capsid-like particles) of wild-type CA (CA-P1A), filled with sinGFP4a K182R | – | – | – | – | percent of parent [4, 10]: 110%; response [5, 8]: 28000; response [5, 9]: 34000
conical CLPs (capsid-like particles) of wild-type CA (CA-P1A), filled with sinGFP4a L136M | – | – | – | – | response [5, 8]: 28000; response [5, 9]: 30000
conical CLPs (capsid-like particles) of wild-type CA (CA-P1A), filled with sinGFP4a M96G | 28000 | 30000 | – | 90% | –
conical CLPs (capsid-like particles) of wild-type CA (CA-P1A), filled with sinGFP4a N57A | 23000 | 1800 | 85% | 7% | percent of parent ([4]; signal at rim of FG particles): 80%; response [5, 8]: 21000; response [5, 9]: 1600
conical CLPs (capsid-like particles) of wild-type CA (CA-P1A), filled with sinGFP4a N57A; A92E | 14000 | 1100 | 52% | 4.2% | –
conical CLPs (capsid-like particles) of wild-type CA (CA-P1A), filled with sinGFP4a N57A; A92E; G94D | 4300 | 660 | 16% | 2.5% | –
conical CLPs (capsid-like particles) of wild-type CA (CA-P1A), filled with sinGFP4a N57A; G94D | 17000 | 1200 | 63% | 4.6% | –
conical CLPs (capsid-like particles) of wild-type CA (CA-P1A), filled with sinGFP4a N57A; H87Q; A92E; G94D | 370 | 440 | 1.4% | 1.7% | –
conical CLPs (capsid-like particles) of wild-type CA (CA-P1A), filled with sinGFP4a N74D | – | – | – | – | percent of parent ([4]; signal at rim of FG particles): 110%; percent of parent [4, 10]: 110%; response [5, 8]: 30000; response [5, 9]: 33000
conical CLPs (capsid-like particles) of wild-type CA (CA-P1A), filled with sinGFP4a P90A | – | – | – | – | percent of parent ([4]; signal at rim of FG particles): 110%; response [5, 8]: 29000; response [5, 9]: 32000
conical CLPs (capsid-like particles) of wild-type CA (CA-P1A), filled with sinGFP4a P123E | – | – | 80% | – | response [7, 8]: 17000; response [7, 9]: 7400
conical CLPs (capsid-like particles) of wild-type CA (CA-P1A), filled with sinGFP4a Q9E; A92E | 9700 | 660 | – | – | percent of parent ([6]; signal at rim of FG particles): 36%; percent of parent [6, 10]: 2.5%
conical CLPs (capsid-like particles) of wild-type CA (CA-P1A), filled with sinGFP4a R143A | – | – | – | – | response [5, 8]: 28000; response [5, 9]: 30000
conical CLPs (capsid-like particles) of wild-type CA (CA-P1A), filled with sinGFP4a V86E; A88E; I91E; A92E | 260 | 190 | – | – | percent of parent ([6]; signal at rim of FG particles): 1%; percent of parent [6, 10]: 0.7%
conical CLPs (capsid-like particles) of wild-type CA (CA-P1A), filled with sinGFP4a V86G | 27000 | 31000 | 90% | 90% | –
mCherry | – | – | – | – | partition coefficient (in:out) [3]: < 0.1
